Reference: patent US20150086562A1 (BIOATLA, published 2015)

T1: CD22 protein expressed on the surface of Daudi cells (human, UniProt P20273 20-847)
T1 sequence (looked up): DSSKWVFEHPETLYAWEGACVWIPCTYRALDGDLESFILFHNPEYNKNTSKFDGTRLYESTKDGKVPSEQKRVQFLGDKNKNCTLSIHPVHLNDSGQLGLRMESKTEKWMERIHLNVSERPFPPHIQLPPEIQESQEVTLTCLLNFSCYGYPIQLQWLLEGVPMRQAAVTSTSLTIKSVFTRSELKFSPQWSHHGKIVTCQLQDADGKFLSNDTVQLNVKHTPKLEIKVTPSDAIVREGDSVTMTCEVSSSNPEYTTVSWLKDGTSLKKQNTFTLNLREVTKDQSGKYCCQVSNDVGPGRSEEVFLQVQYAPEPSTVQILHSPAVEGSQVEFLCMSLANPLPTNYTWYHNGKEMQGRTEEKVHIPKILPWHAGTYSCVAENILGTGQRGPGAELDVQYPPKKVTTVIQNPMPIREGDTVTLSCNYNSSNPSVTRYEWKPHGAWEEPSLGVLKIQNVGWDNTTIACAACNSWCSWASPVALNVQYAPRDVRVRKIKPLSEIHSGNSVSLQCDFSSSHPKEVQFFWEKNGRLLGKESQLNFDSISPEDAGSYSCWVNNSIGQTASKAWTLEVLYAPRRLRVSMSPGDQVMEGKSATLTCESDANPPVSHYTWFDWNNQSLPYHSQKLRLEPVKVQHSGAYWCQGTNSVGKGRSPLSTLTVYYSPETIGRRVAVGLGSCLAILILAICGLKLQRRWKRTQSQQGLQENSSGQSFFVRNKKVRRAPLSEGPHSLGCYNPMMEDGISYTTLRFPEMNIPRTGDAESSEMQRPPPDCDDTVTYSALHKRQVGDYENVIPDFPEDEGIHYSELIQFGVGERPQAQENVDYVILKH


Experiments:
[1] = molecular target: T1, CD22 protein expressed on the surface …; assay: cell-based or functional assay
[2] = molecular target: T2, recombinant CD22 extracellular domain; assay: ELISA on plates coated with recombinant CD22 extracellular domain (coating 2, 0.2, 0.02 or 0.002 ug/ml per paragraph 227; the sheet does not say which), anti-human IgG-HRP, read at 450 nm
T2 construct: Kept apart from m18, which is cell-surface CD22; also called CD22 (analyte in the BIAcore runs); CD22 ECD
Description: Nunc-Immuno MaxiSorp 96 well plates were coated with 100 μl of 2 μg/ml, 0.2 μg/ml, 0.02 μg/ml or 0.002 μg/ml recombinant CD22 extracellular domain (PeproTech, Inc. catalog number 100-01 in coating solution (sodium bicarbonate in PBS). The plates were covered with plate sealer and incubated at 4° C. overnight. Plates were emptied and the residual liquid tapped out on paper towels. 200 μl washing solution (0.05% Tween-20 in PBS) was added and shaken at 200 RPM for 5 min at room temperature. The plates were emptied and residual liquid tapped out on paper towels. 200 μl blocking solution (2% Carnation milk in PBS) was added and shaken at 200 RPM for one hour at room temperature. Plates were emptied and residual liquid tapped out on paper towels. 100 μl of diluted samples containing VM1000, VM1001, VM1002, VM1003, VM1004, VM1005, VM1006, VM1007, VM1008, VM1009, VM1010, VM1011, VM1012, VM1013, VM1014, and VM1015 antibodies for ELISA were used. The samples were shaken at 200 RPM for one hour at room temperature; plates emptied and residual liquid tapped out on paper towels. 200 μl washing solution (0.05% Tween-20 in PBS) was added, shaken at 200 RPM for 5 min at room temperature; plates emptied and residual liquid tapped out on paper towels. This process was repeated three times. 100 μl of 1:2500 dilution of anti-human IgG conjugated with HRP diluted in block solution (2% Carnation milk in PBS) was added for all samples. 100 μl of 1:2500 dilution of anti-rabbit IgG conjugated with HRP diluted in block solution (2% Carnation milk in PBS) was added for control antibody. The contents were shaken at 200 RPM for one hour at room temperature, plates emptied and residue liquid tapped out on paper towels. 200 μl washing solution (0.05% Tween-20 in PBS) was added, shaken at 200 RPM for 5 min at room temperature; plates emptied and residual liquid tapped out on paper towels. This process was repeated three times. 100 μl TMB substrate solution was added, and incubated at room temperature. The reaction was stopped with 1 N HCl, and the plate read at 450 nm to determine relative binding affinity (FIG. 17).

Binder	Daudi Internalization by FACS, % Shift [1]	ELISA OD 450 [2]
VM1000 (antibody, V domains shown, Humanized antibody with human constant region; also called anti-CD22 Mab clone VM1000) VH: QVQLVQSGAEVKKPGASVKVSCKASGYVFTSYWLHWIRQSPSRGLEWLGYINPRNDYTEYNRIFKGRLTISKDTSKNQVVLTMTNMDPVDTATYYCARRGITTFYWGQG VL: EIVLTQSPATLSLSPGERATLSCKSSQSVLYSAVEKNYLAWYQQKPGKAPKLLIYWASTRERGVPSRFSGSGSGTDFTFTISSLQPEDIATYYCKQYLSSWTFGQG	85.9%	0.517
VM1002 (antibody, V domains shown, Humanized antibody with human constant region; also called anti-CD22 Mab clone VM1002) VH: EVQLVQSGAEVKKPGESLRISCKGSGYVFTSYWLHWVRQAPGQGLEWMGYINPRNDYTEYNRIFKGRVTITADKSTSTAYMELSSLRSEDTAVYYCARRGITTFYWGQG VL: EIVLTQSPATLSLSPGERATLSCKSSQSVLYSAVEKNYLAWYQQKPGQAPRLLIYWASTRERGIPDRFSGSGSGTDFTLTISRLEPEDFAVYYCKQYLSSWTFGQG	84.6%	0.495
VM1004 (antibody, V domains shown, Humanized antibody with human constant region; also called anti-CD22 Mab clone VM1004) VH: EVQLVQSGAEVKKPGATVKISCKVSGYVFTSYWLHWIRQSPSRGLEWLGYINPRNDYTEYNRIFKGRFVFSLDTSVSTAYLQICSLKAEDTAVYYCARRGITTFYWGQG VL: EIVLTQSPATLSLSPGERATLSCKSSQSVLYSAVEKNYLAWYQQKPGKAPKLLIYWASTRERGIPDRFSGSGSGTDFTLTISRLEPEDFAVYYCKQYLSSWTFGQG	87.1%	0.444
VM1011 (antibody, V domains shown, Humanized antibody with human constant region; also called anti-CD22 Mab clone VM1011) VH: QVQLQESGPGLVKPSQTLSLTCTVSGYVFTSYWLHWIRQPPGKGLEWIGYINPRNDYTEYNRIFKGRVTITADKSTSTAYMELSSLRSEDTAVYYCARRGITTFYWGQG VL: EIVLTQSPATLSLSPGERATLSCKSSQSVLYSAVEKNYLAWYQQKPGQAPRLLIYWASTRERGIPDRFSGSGSGTDFTLTISRLEPEDFAVYYCKQYLSSWTFGQG	87.1%	0.15
VM1003 (antibody, V domains shown, Humanized antibody with human constant region; also called anti-CD22 Mab clone VM1003) VH: EVQLVQSGAEVKKPGATVKISCKVSGYVFTSYWLHWIRQSPSRGLEWLGYINPRNDYTEYNRIFKGRFVFSLDTSVSTAYLQICSLKAEDTAVYYCARRGITTFYWGQG VL: EIVLTQSPATLSLSPGERATLSCKSSQSVLYSAVEKNYLAWYQQKPGQAPRLLIYWASTRERGIPDRFSGSGSGTDFTLTISRLEPEDFAVYYCKQYLSSWTFGQG	70.8%	0.56
VM1001 (antibody, V domains shown, Humanized antibody with human constant region; also called anti-CD22 Mab clone VM1001) VH: QVQLVQSGAEVKKPGASVKVSCKASGYVFTSYWLHWIRQSPSRGLEWLGYINPRNDYTEYNRIFKGRLTISKDTSKNQVVLTMTNMDPVDTATYYCARRGITTFYWGQG VL: EIVLTQSPATLSLSPGERATLSCKSSQSVLYSAVEKNYLAWYQQKPGQAPRLLIYWASTRERGIPDRFSGSGSGTDFTLTISRLEPEDFAVYYCKQYLSSWTFGQG	86.4%	0.386
VM1006 (antibody, V domains shown, Humanized antibody with human constant region; also called anti-CD22 Mab clone VM1006) VH: QVQLVQSGAEVKKPGASVKVSCKASGYVFTSYWLHWIRQSPSRGLEWLGYINPRNDYTEYNRIFKGRFVFSLDTSVSTAYLQICSLKAEDTAVYYCARRGITTFYWGQG VL: DIQMTQSPSSLSASVGDRVTITCKSSQSVLYSAVEKNYLAWYQQKPGKAPKLLIYWASTRERGIPDRFSGSGSGTDFTLTISRLEPEDFAVYYCKQYLSSWTFGQG	88.3%	0.638
VM1007 (antibody, V domains shown, Humanized antibody with human constant region; also called anti-CD22 Mab clone VM1007) VH: QVQLVQSGAEVKKPGASVKVSCKASGYVFTSYWLHWVRQARGQRLEWIGYINPRNDYTEYNRIFKGRVTITADKSTSTAYMELSSLRSEDTAVYYCARRGITTFYWGQG VL: AIQLTQSPSSLSASVGDRVTITCKSSQSVLYSAVEKNYLAWYQQKPGKAPKLLIYWASTRERGVPSRFSGSGSGTDFTFTISSLEAEDAATYYCKQYLSSWTFGQG	85%	0.538
